B2: FIP200(1490–1594) (domain or fragment)
chain: SRHSEKIAIRDFQVGDLVLIILDERHDNYVLFTVSPTLYFLHSESLPALDLKPGEGASGASRRPWVLGKVMEKEYCQAKKAQNRFKVPLGTKFYRVKAVSWNKKV
B3: FIP200(1490–1594) of the crystallised FIP200 Claw/ATG16L1 FIR complex (domain or fragment)
chain: SRHSEKIAIRDFQVGDLVLIILDERHDNYVLFTVSPTLYFLHSESLPALDLKPGEGASGASRRPWVLGKVMEKEYCQAKKAQNRFKVPLGTKFYRVKAVSWNKKV

What was measured:
[1] = molecular target: B3; assay: crystal structure
GST-[…]1 = GST-[…]1 (human, UniProt Q9H0R8 1-117); assay: SEC
ATG16L1(78–247) = ATG16L1(78–247) (human, UniProt Q676U5 78-247); assay: SEC-MALS
crystal structure = molecular target: the molecule itself; assay: crystal structure
FIP200(1490–1594) = molecular target: B2; assay: SEC

Chain of GST-[…]1 (Q9H0R8 whole entry): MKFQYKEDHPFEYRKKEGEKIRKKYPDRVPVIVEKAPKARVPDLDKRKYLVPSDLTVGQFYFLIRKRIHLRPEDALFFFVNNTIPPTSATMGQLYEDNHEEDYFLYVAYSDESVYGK

EQDDDIEVIVDET [ATG16L1(235–247) of the crystallised FIP200 Claw/ATG16L1 FIR complex]: binds [1].

B1: Trx-tagged ATG16L1(78–247) (domain or fragment)
chain: NDNQLQEMAQLRIKHQEELTELHKKRGELAQLVIDLNNQMQRKDREMQMNEAKIAECLQTISDLETECLDLRTKLCDLERANQTLKDEYDALQITFTALEGKLRKTTEENQELVTRWMAEKAQEANRLNAENEKDSRRRQARLQKELAEAAKEPLPVEQDDDIEVIVDET
B1: binds (GST-[…]1).

B2 was tested, and the “stoichiometry N” value (ATG16L1(78–247)) was 1.

With B3 the “stoichiometry N” value (crystal structure) was 2.

EQDDDIEVIVDET (domain or fragment) [Trx-tagged ATG16L1 FIR]: binds (FIP200(1490–1594)).

Reference: PMC12513996 (Nature Communications, 2025)
